This is an account of results in patent US20210309732A1 (ELIXIRON IMMUNOTHERAPEUTICS HONG KONG, published 2021).

Like-named read-outs stand apart in the source and are kept apart here.

In assay [1] the target is recombinant human IL-3 (human) (UniProt P08700). Put plainly: cell-based or functional assay.
Assay [2] has as its target T1, recombinant human GM-CSF (human, UniProt P04141 18-144).
T1 construct: also called rhGM-CSF; CSF2
Description: ELISA on coated rhGM-CSF, UBA relative to 1D2. In outline:
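Antibody clones carrying SDR point mutants in VH or VL, each paired with the wild-type chain, were expressed in HEK293 cells. Culture media diluted 1:12000 were bound to plates coated with rhGM-CSF at 1 μg/mL for 1 h at room temperature. Detection used HRP anti-human antibody and Amplex Red fluorescence (Ex530/Em590), with UBA = fluorescence signal/dilution factor.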
For orientation: ELISA stands for enzyme-linked immunosorbent assay.

The target of assay [3] is T1, recombinant human GM-CSF. Description: cell-based or functional assay.
For assay [4], the target named is T1, recombinant human GM-CSF. Put plainly: Biacore.
In assay [5] the target is T1, recombinant human GM-CSF. Put plainly: Gator, Coating Ag.
Assay [6] has as its target T1, recombinant human GM-CSF. Description: Gator (pro), Coating Ag.
Assay [7] concerns the target T1, recombinant human GM-CSF. Description: Gator, Coating Ab.
For assay [8], the target named is T1, recombinant human GM-CSF. Description: Biacore. The source holds these as a separate data set. Background: In SPR one partner is held on a chip, and binding of the other changes the refractive index at the surface.
Assay [9] addresses T1, recombinant human GM-CSF. Put plainly: Biacore. The source holds these as a separate data set.
The target of assay [10] is T1, recombinant human GM-CSF. Put plainly: cell-based or functional assay. This is another data set of the same source.
In a further assay the target is rhesus GM-CSF (rhesus, UniProt Q9GL44 18-144). Put plainly: ELISA, rhesus GM-CSF coated on the plate, anti-human kappa light chain-HRP, OD 450 nm. As for the experimental part:
(§1) Human and mouse GM-CSF have about 56% homology and are species specific. Rhesus and GM-CSF has 96.5% homologous to human GM-CSF (Hutchinson et al, J Med Virol 2001, 65:561-565, Genbank accession number AY007376). […] ELISA was performed as followed. Briefly, GM-CSF proteins were coated on the ELISA absorbing plates, then blocked by 1% BSA in PBS. […] After incubation, the plates were washed three times with TBST and incubated with anti-human kappa light chain conjugated HRP secondary antibodies. Plates were washed three times, TMB peroxidase substrate was added and reactions were stopped by adding 1 N sulfuric acid.

The target in assay [11] is T1, recombinant human GM-CSF. Put plainly: ELISA, human GM-CSF coated on the plate, anti-human kappa light chain-HRP, OD 450 nm. The method, then:
as §1

Assay [12] has as its target recombinant human GM-CSF (human) (UniProt P04141). Description: ELISA, GM-CSF coated on the plate, anti-human kappa light chain-HRP, OD 450 nm.
Another assay concerns the target rhesus GM-CSF (rhesus) (UniProt Q9GL44). The description is as above.
The target in assay [13] is recombinant human GM-CSF (human) (UniProt P04141). Put plainly: cell-based or functional assay.
Chain of recombinant human GM-CSF (human) (P04141 18-144 limits assumed): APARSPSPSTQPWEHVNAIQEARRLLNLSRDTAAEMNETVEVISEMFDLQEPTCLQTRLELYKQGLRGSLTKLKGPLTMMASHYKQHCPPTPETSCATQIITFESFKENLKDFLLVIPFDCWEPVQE
For assay [14] the target is unchanged. Put plainly: SPR Biacore 3000, antibody captured by goat anti-human IgG, rhGM-CSF injected.

What is called Kd is a measure of binding affinity in units of concentration. The term koff denotes the rate constant with which the complex falls apart. The kon is the rate constant with which the complex forms. For orientation: EC50 (read off the curve) means the concentration giving half of the maximal effect.

T1 sequence (P04141 18-144 limits assumed): as above
Chain of rhesus GM-CSF (Q9GL44 entry or part of it limits assumed): as the sequence (P04141 18-144 limits assumed) above, with S9G, E38K, I43V, T53S, R67Q, E104Q counted along it
Chain of recombinant human IL-3 (human) (P08700 20-152 limits assumed): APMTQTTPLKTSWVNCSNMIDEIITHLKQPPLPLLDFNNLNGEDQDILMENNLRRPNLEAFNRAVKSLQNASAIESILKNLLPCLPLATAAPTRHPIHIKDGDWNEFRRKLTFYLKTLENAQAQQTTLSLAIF
Chain of rhesus GM-CSF (rhesus) (Q9GL44 entry or part of it limits assumed): as the sequence (P04141 18-144 limits assumed) above, with S9G, E38K, I43V, T53S, R67Q, E104Q counted along it

Take MOR103 (otilimab) (antibody): the Mean Fluorescence Intensity of phospho-STAT5 (pY694) in human PBMCs stimulated with 10 ng/mL rhIL-3, 2 ug/mL antibody (no antibody: 102) in [1] came out at 106 MFI.

B1: 1D2 SDR mutant HY103R (antibody, IgG1, V domains shown)
VH: QVQLVQSGAEVKKPGASVKVSCEASGYTFTDKYLHWVRQAPGQGLEWMAWINPKSGGTFYAQNFKGRVTVTRDTSINTAYLELTSLRLDDTSTYYCARGRDYRDQGAADLWGQGTMVTVSS
VL: DIQLTQSPSSLSASVGDRVTITCRASQGINSVLAWYQQKPGKAPKLLLYAASKLESGVPSRFSGSGSGTDYTLTISSLQPEDFGTYYCQQYYSPVRTFGQGTKVEIKR
notes: also called X6 R
As to B1, in the assay with recombinant human GM-CSF [2], the “binding affinity % of 1D2” value turned out to be 115%. Also, the “IC50 (M), inhibition of GM-CSF induced TF-1 cell proliferation (FIG. 5B)” value (“IC50 (M), inhibition” for short) with recombinant human GM-CSF [3] was determined as 3.47e-09 M. Besides, in the assay with recombinant human GM-CSF [4], the Ka was 2.42e+09 M⁻¹, the Kd was found to be 0.414 nM, the off-rate (koff) was 0.00057 s⁻¹ and the kon worked out at 1.38e+06 M⁻¹ s⁻¹.

B2: 1D2 SDR mutant K54G/V32R (antibody, IgG1, V domains shown)
VH: QVQLVQSGAEVKKPGASVKVSCEASGYTFTDKYLHWVRQAPGQGLEWMAWINPGSGGTFYAQNFKGRVTVTRDTSINTAYLELTSLRLDDTSTYYCARGRDYYDQGAADLWGQGTMVTVSS
VL: DIQLTQSPSSLSASVGDRVTITCRASQGINSRLAWYQQKPGKAPKLLLYAASKLESGVPSRFSGSGSGTDYTLTISSLQPEDFGTYYCQQYYSPVRTFGQGTKVEIKR
notes: also called 54G/32R
For the molecule B2, the Kd in the assay with recombinant human GM-CSF [5] was found to be 0.0222 nM; with recombinant human GM-CSF [6], 0.000746 nM; with recombinant human GM-CSF [7] it was 0.929 nM; with recombinant human GM-CSF [8] it was 1.5 nM; with recombinant human GM-CSF [4], 1.91 nM. The “IC50 (M), inhibition” value with recombinant human GM-CSF [3] came to 6.62e-09 M. The Ka in the assay with recombinant human GM-CSF [4] turned out to be 5.23e+08 M⁻¹. For the same molecule, the koff with recombinant human GM-CSF [4] is 0.00197 s⁻¹. The kon with recombinant human GM-CSF [4] came to 1.03e+06 M⁻¹ s⁻¹.

B3: 1D2-D90E (DE) (antibody, IgG1, V domains shown)
VH: QVQLVQSGAEVKKPGASVKVSCEASGYTFTDKYLHWVRQAPGQGLEWMAWINPKSGGTFYAQNFKGRVTVTRDTSINTAYLELTSLRLDETSTYYCARGRDYYDQGAADLWGQGTMVTVSS
VL: DIQLTQSPSSLSASVGDRVTITCRASQGINSVLAWYQQKPGKAPKLLLYAASKLESGVPSRFSGSGSGTDYTLTISSLQPEDFGTYYCQQYYSPVRTFGQGTKVEIKR
notes: also called ID2-D90E (DE); DE mutant
With B3, in the assay with recombinant human GM-CSF [9], the Kd came to 0.114 nM, the koff was 0.000198 s⁻¹ and the kon amounted to 1.74e+06 M⁻¹ s⁻¹. In addition, in the assay with recombinant human GM-CSF [10], the “IC50, inhibition of GM-CSF induced TF-1 cell proliferation” value was 0.123 nM and the “IC50, inhibition of rhGM-CSF induced IL-8 secretion in U937 cells” value was 0.054 nM. Further, the concentration giving a half-maximal response (EC50 (read off the curve)) in the assay with rhesus GM-CSF was ~0.6 nM. Further, in the assay with recombinant human GM-CSF [11], the “EC50 (read off the curve)” value is ~0.5 nM.

B4: 1D2 SDR mutant Y103N/V32R (antibody, IgG1, V domains shown)
VH: QVQLVQSGAEVKKPGASVKVSCEASGYTFTDKYLHWVRQAPGQGLEWMAWINPKSGGTFYAQNFKGRVTVTRDTSINTAYLELTSLRLDDTSTYYCARGRDYNDQGAADLWGQGTMVTVSS
VL: DIQLTQSPSSLSASVGDRVTITCRASQGINSRLAWYQQKPGKAPKLLLYAASKLESGVPSRFSGSGSGTDYTLTISSLQPEDFGTYYCQQYYSPVRTFGQGTKVEIKR
As to B4, the Kd with recombinant human GM-CSF [5] stood at 0.0201 nM; with recombinant human GM-CSF [6], 0.00584 nM; with recombinant human GM-CSF [7], 1.44 nM; in the assay with recombinant human GM-CSF [8], 3.36 nM; with recombinant human GM-CSF [4] it was 4.22 nM. For the same molecule, the “IC50 (M), inhibition” value with recombinant human GM-CSF [3] was ~6.83e-09 M. Besides, the Ka with recombinant human GM-CSF [4] came out at 2.37e+08 M⁻¹. Also, the koff with recombinant human GM-CSF [4] came to 0.0027 s⁻¹. Moreover, the kon with recombinant human GM-CSF [4] is 640000 M⁻¹ s⁻¹.

B5: 1D2 SDR mutant Y103R/V32R (antibody, IgG1, V domains shown)
VH: QVQLVQSGAEVKKPGASVKVSCEASGYTFTDKYLHWVRQAPGQGLEWMAWINPKSGGTFYAQNFKGRVTVTRDTSINTAYLELTSLRLDDTSTYYCARGRDYRDQGAADLWGQGTMVTVSS
VL: DIQLTQSPSSLSASVGDRVTITCRASQGINSRLAWYQQKPGKAPKLLLYAASKLESGVPSRFSGSGSGTDYTLTISSLQPEDFGTYYCQQYYSPVRTFGQGTKVEIKR
For B5, the Kd was 0.0309 nM with recombinant human GM-CSF [5]; 0.0028 nM in the assay with recombinant human GM-CSF [6]; 4.14 nM with recombinant human GM-CSF [7]; 7.76 nM with recombinant human GM-CSF [8]; 2.42 nM in the assay with recombinant human GM-CSF [4]. In addition, the “IC50 (M), inhibition” value in the assay with recombinant human GM-CSF [3] is ~8.19e-09 M. For the same molecule, the Ka with recombinant human GM-CSF [4] came out at 4.14e+08 M⁻¹. Further, in the assay with recombinant human GM-CSF [4], the dissociation rate constant (koff) is 0.00241 s⁻¹. In the assay with recombinant human GM-CSF [4], the kon worked out at 998000 M⁻¹ s⁻¹.

B6: 1D2-D89E (ED) (antibody, IgG1, V domains shown)
VH: QVQLVQSGAEVKKPGASVKVSCEASGYTFTDKYLHWVRQAPGQGLEWMAWINPKSGGTFYAQNFKGRVTVTRDTSINTAYLELTSLRLEDTSTYYCARGRDYYDQGAADLWGQGTMVTVSS
VL: DIQLTQSPSSLSASVGDRVTITCRASQGINSVLAWYQQKPGKAPKLLLYAASKLESGVPSRFSGSGSGTDYTLTISSLQPEDFGTYYCQQYYSPVRTFGQGTKVEIKR
notes: also called ID2-D89E (ED); ED mutant
For the molecule B6, in the assay with recombinant human GM-CSF [9], the Kd stood at 0.0732 nM, the koff was 0.000188 s⁻¹ and the kon was found to be 2.58e+06 M⁻¹ s⁻¹. In addition, in the assay with recombinant human GM-CSF [10], the “IC50, inhibition of GM-CSF induced TF-1 cell proliferation” value was determined as 0.0971 nM; the “IC50, inhibition of rhGM-CSF induced CCL17 secretion from PBMCs” value amounted to 0.0543 nM; the “IC50, inhibition of rhGM-CSF induced IL-8 secretion in U937 cells” value is 0.051 nM. The “EC50 (read off the curve)” value with rhesus GM-CSF was ~0.6 nM. Also, the “EC50 (read off the curve)” value in the assay with recombinant human GM-CSF [11] was ~0.5 nM.

B7: AMG203 (namilumab) (antibody, INN chains, looked up, human IgG1, V domains shown)
VH: QVQLVQSGAEVKKPGASVKVSCKAFGYPFTDYLLHWVRQAPGQGLEWVGWLNPYSGDTNYAQKFQGRVTMTRDTSISTAYMELSRLRSDDTAVYYCTRTTLISVYFDYWGQGTMVTVSS
VL: DIQMTQSPSSVSASVGDRVTIACRASQNIRNILNWYQQRPGKAPQLLIYAASNLQSGVPSRFSGSGSGTDFTLTINSLQPEDFATYYCQQSYSMPRTFGGGTKLEIK
modifications: IgG1 kappa
Regarding B7, the EC50 (read off the curve) in assay [12] is 0.05 nM. In the assay with rhesus GM-CSF (rhesus), this molecule returned an EC50 (read off the curve) of 0.05 nM. Further, the Mean Fluorescence Intensity of phospho-STAT5 (pY694) in human PBMCs stimulated with 10 ng/mL rhGM-CSF, 2 ug/mL antibody (no antibody: 122.0) in assay [13] amounted to 42.6 MFI. Also, the Mean Fluorescence Intensity of phospho-STAT5 (pY694) in human PBMCs stimulated with 10 ng/mL rhIL-3, 2 ug/mL antibody (no antibody: 102) in [1] was 104 MFI. For the same molecule, in assay [14], the Kd was 0.62 nM, the koff was 4.77e-05 s⁻¹ and the kon came out at 296000 M⁻¹ s⁻¹.
